{"source": "patent US20240401063", "about": "“Aptamer for DKK1 and Use Thereof” (APTACURE THERAPEUTICS LIMITED, published 2024)", "key": {"[1]": {"molecular_target": "T1, DKK1 (Dickkopf-1), full-length (Homo sapiens, UniProt O94907 SEQ:32-266)", "T1 sequence": "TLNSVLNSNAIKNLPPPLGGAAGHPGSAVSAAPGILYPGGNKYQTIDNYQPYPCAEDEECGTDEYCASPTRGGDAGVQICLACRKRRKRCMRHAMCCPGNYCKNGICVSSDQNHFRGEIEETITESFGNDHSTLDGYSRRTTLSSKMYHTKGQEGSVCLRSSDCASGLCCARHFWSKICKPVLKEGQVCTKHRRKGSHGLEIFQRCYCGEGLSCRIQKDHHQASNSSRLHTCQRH", "test": "ELONA; 1 nM: no or slight difference from aptdkk5", "details": "tags: His6; label: biotin", "method": "(§1) Enzyme linked oligonucleotide assay (ELONA): 160 ng DKK1 per well and negative target were coated in a 96-well microtiter plate by incubating at 4° C. overnight through hydrophobic interaction. Non-binding sites in wells were blocked with bull serum albumin (BSA) at room temperature for 1 hour, and then washed with DNA-binding buffer 4 times for 5 minutes each. The biotinylated aptamer candidates/RS with an appropriate concentration were added to each well and incubated at room temperature for 45 minutes with continuous gentle shaking. After binding, the plate was washed with washing buffer 4 times for 5 minutes each to remove non-specific and weakly binding sequences. 100 μl streptavidin-horseradish peroxidase (HRP) (1:10000 dilute into PBST+0.1% BSA) was added to each well, and incubated for 30 minutes, and washed for 4 times with the binding buffer. 50 μl 3,3′,5,5′-tetramethylbenzidine (TMB) as a HRP substrate was added to each well and incubated for 20 minutes. 50 μl 2M H₂SO₄ was added to terminate the reaction. The absorbance at 450 nm was measured with a microplate reader (Molecular Device i3x). Data was analyzed with Origin software. A binding curve was generated and KD was calculated with a non-linear curve fitting model logistic.\nThe specificity of 100 nM/i nM of each aptamer/RS against DKK-1 was determined for 24 truncated sequences of aptdkk5 and original aptdkk5 (Table 6) by ELONA and the absorbance at 450 nm was detected. When the concentration was 100 nM, there was no significant difference or slight difference in the absorbance between apt5-1-38, apt5-1-35, apt5-1-62, or apt5-1-59 and the original aptdkk5 (FIG. 8a). When the concentration was 1 nM, there was no significant difference or slight difference in the absorbance between apt5-1-50, apt5-1-47, apt5-1-44, apt5-1-41, apt5-1-38, apt5-1-35, apt5-1-65, apt5-1-62, apt5-1-59, or apt5-1-53 and the original aptdkk5 (FIG. 8b). After the specificity and length of these aptamers were considered, apt5-1-44, apt5-1-41, apt5-1-38, and apt5-1-35 were selected to determine the binding affinity against DKK1."}, "[2]": {"molecular_target": "T1, DKK1 (Dickkopf-1), full-length", "test": "ELONA; high affinity; Kd only in FIG. 9", "details": "tags: His6; label: biotin", "method": "as §1\nAptamer candidates with significant specificity (apt5-1-44, apt5-1-41, apt5-1-38, and apt5-1-35) and the original aptdkk5 as a positive control were used to determine the binding affinity against DKK1. The original aptdkk5 and apt5-1-44 had concentrations of (0.15625 nM, 0.625 nM, 1.25 nM, 2.5 nM, 5 nM, 10 nM, 50 nM, and 100 nM), apt5-1-41, apt5-1-38, and apt5-1-35 had concentrations of (0, 1.5625 nM, 3.125 nM, 6.25 nM, 12.5 nM, 25 nM, and 50 nM)."}, "[3]": {"molecular_target": "T1, DKK1 (Dickkopf-1), full-length", "test": "ELONA; highest affinity of the four truncations; Kd only in FIG. 9", "details": "tags: His6; label: biotin", "method": "as §1, with “logistic. […]” for “logistic.”"}, "[4]": {"molecular_target": "T2, DKK1 expressed in Wnt reporter cells (UniProt O94907 SEQ:32-266)", "T2 sequence": "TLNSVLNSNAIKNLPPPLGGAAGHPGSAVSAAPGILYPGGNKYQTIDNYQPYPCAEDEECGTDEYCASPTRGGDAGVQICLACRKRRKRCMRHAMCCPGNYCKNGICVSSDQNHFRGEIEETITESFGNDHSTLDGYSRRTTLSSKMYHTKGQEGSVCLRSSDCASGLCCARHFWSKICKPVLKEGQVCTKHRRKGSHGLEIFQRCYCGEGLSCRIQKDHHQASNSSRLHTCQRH", "test": "cell_activity; TOPFlash Wnt3a luciferase in HEK293T", "details": "tags: DKK1 construct co-transfected in HEK293T", "method": "TCF-wnt induced luciferase activity assay: HEK293T cells were co-transfected with corresponding plasmids, including TOPFlash, FOPFlash, Wnt3a, and DKK1 constructs. An equal amount of the carrier was used for each time of transfection. The culture medium was replaced 24 hours after the transfection. The cells were treated with conditional culture medium containing 1 μM corresponding aptamer candidates. In order to determine inhibition effect, the cells are treated with aptamer candidates having gradient concentrations. 24 hours after treatment, the cells were lysed with 100 μl of lysis buffer, and 20 μl was taken for analysis. It was calculated according to the protocol (dual luciferase reporter gene assay, Promega)."}, "[5]": {"molecular_target": "T1, DKK1 (Dickkopf-1), full-length", "test": "ELONA; room temperature", "details": "tags: His6; label: biotin; G-rich, predicted G4", "method": "as §1\nAptamer candidates with significant specificity and Candidate 3 as a negative control were used to determine the binding affinity against DKK1. Candidates 1, 2, 4, and 14 had concentrations of (0, 62.5 nM, 125 nM, 250 nM, 500 nM, 1000 nM, 2000 nM, and 4000 nM), Candidates 7, 10, 15, and 16 had concentrations of (0, 23.44 nM, 46.86 nM, 93.75 nM, 187.5 nM, 375 nM, 750 nM, and 1500 nM), and other candidates had concentrations of (0, 0.18 nM, 0.74 nM, 2.96 nM, 11.84 nM, 47.35 nM, 189.39 nM, and 757.58 nM). […] Six candidates (aptdkk-5, 13, 20, 19, 6, and 1) were rich in G. The other five sequences (aptdkk-9, 18, 12, 17, and 8) were not rich in G."}, "[6]": {"molecular_target": "T1, DKK1 (Dickkopf-1), full-length", "test": "ELONA; 100 nM and 1 nM: no or slight difference from aptdkk5", "details": "tags: His6; label: biotin", "method": "as §1, with “100 μl streptavidin-horseradish peroxidase (HRP) (1:10000 dilute into PBST+0.1% BSA) was added to each well, and incubated for 30 minutes, and washed for 4 times with the binding buffer. 50 μl 3,3′,5,5′-tetramethylbenzidine (TMB) as a HRP substrate was added to each well and incubated for 20 minutes. 50 μl 2M H₂SO₄ was added to terminate the reaction.” left out\nThe specificity of 100 nM/i nM of each aptamer/RS against DKK-1 was determined for 24 truncated sequences of aptdkk5 and original aptdkk5 (Table 6) by ELONA and the absorbance at 450 nm was detected. When the concentration was 100 nM, there was no significant difference or slight difference in the absorbance between apt5-1-38, apt5-1-35, apt5-1-62, or apt5-1-59 and the original aptdkk5 (FIG. 8a). […]"}, "[7]": {"molecular_target": "T1, DKK1 (Dickkopf-1), full-length", "test": "ELONA; not significantly above blank at 1 uM; used as negative control", "details": "tags: His6; label: biotin", "method": "as §1, with “50 μl 2M H₂SO₄ was added to terminate the reaction.” left out\nThe specificity of 1 μM of each adapter/RS against DKK-1 was determined for 20 potential sequences with the highest occurrence rate (Table 4) by ELONA and the absorbance at 450 nm was detected."}, "[8]": {"details": "label: biotin, G-rich, predicted G4"}}}
{"binder": "Apt5-1-53 (ssDNA) DNA: CGTACGGTCGACGCTAGCTGGTGGTTGGGGTGGGTGGTGGTTGTTCGTGGCCG", "values": [{"measurement": "binding result", "setting": "[1]", "result": "binds"}]}
{"binder": "CGTACGGTCGACGCTAGCTGGTGGTTGGGGTGGGTGGTGGT (ssDNA)", "note": "[Apt5-1-41]", "values": [{"measurement": "binding result", "setting": "[2]", "result": "binds"}]}
{"binder": "CGTACGGTCGACGCTAGCTGGTGGTTGGGGTGGGTGGTGGTTGT (ssDNA)", "note": "[Apt5-1-44]", "values": [{"measurement": "binding result", "setting": "[2]", "result": "binds"}]}
{"binder": "CGTACGGTCGACGCTAGCTGGTGGTTGGGGTGGGTGGT (ssDNA)", "note": "[Apt5-1-38 (Aptdkk5s)]", "values": [{"measurement": "binding result", "setting": "[3]", "result": "binds"}]}
{"binder": "CGTACGGTCGACGCTAGCTGGTGGTTGGGGTGGGTGGT (ssDNA, O-methyl (positions not stated); 3' inverted dT)", "note": "[dkk5s-OM-indT]", "values": [{"measurement": "IC50", "setting": "[4]", "result": 383, "unit": "nM"}]}
{"binder": "Apt5-1-65 (ssDNA) DNA: CGTACGGTCGACGCTAGCTGGTGGTTGGGGTGGGTGGTGGTTGTTCGTGGCCGCGTACGGTCGAC", "values": [{"measurement": "binding result", "setting": "[1]", "result": "binds"}]}
{"binder": "Aptdkk-20 (ssDNA) DNA: CGTACGGTCGACGCTAGCCGTAGGGAGGTGGGTGGGTATTTCTCTCTGTCGTGGGATCCGAGCTCCACGTG", "values": [{"measurement": "Kd", "setting": "[5]", "result": 6.6, "unit": "nM"}, {"measurement": "IC50", "setting": "[4]; [8]", "result": 1500, "unit": "nM"}]}
{"binder": "Apt5-1-59 (ssDNA) DNA: CGTACGGTCGACGCTAGCTGGTGGTTGGGGTGGGTGGTGGTTGTTCGTGGCCGCGTACG", "values": [{"measurement": "binding result", "setting": "[6]", "result": "binds"}]}
{"binder": "CGTACGGTCGACGCTAGCTGGTGGTTGGGGTGGGT (ssDNA)", "note": "[Apt5-1-35]", "values": [{"measurement": "binding result", "setting": "[2]", "result": "binds"}]}
{"binder": "Apt5-1-62 (ssDNA) DNA: CGTACGGTCGACGCTAGCTGGTGGTTGGGGTGGGTGGTGGTTGTTCGTGGCCGCGTACGGTC", "values": [{"measurement": "binding result", "setting": "[6]", "result": "binds"}]}
{"binder": "Aptdkk-3 (ssDNA) DNA: CGTACGGTCGACGCTAGCTAACTGTCCGACGCGTCTTTCACTTTCTCCCGCCGGGATCCGAGCTCCACGTG", "values": [{"measurement": "binding result", "setting": "[7]", "result": "no binding"}]}
{"binder": "Aptdkk-5 (ssDNA) DNA: CGTACGGTCGACGCTAGCTGGTGGTTGGGGTGGGTGGTGGTTGTTCGTGGCCGGGATCCGAGCTCCACGTG", "values": [{"measurement": "Kd", "setting": "[5]", "result": 0.3, "unit": "nM"}, {"measurement": "IC50", "setting": "[4]; [8]", "result": 754, "unit": "nM"}]}
